Test [1] has as its target T1, human IL-21R expressed on cells (human, UniProt Q9HBE5 20-538). Description: cell-based or functional assay.
Test [2] deals with T2, human IL-21R fusion protein (human, UniProt Q9HBE5 20-235, biotinylated in the assay of Example 11 (site not stated)).
T2 construct: Soluble fusion protein (Wyeth); The extracellular domain is said to be about residues 20-235; also called soluble IL-21R fusion protein; biotinylated human IL-21R fusion protein
Description: DELFIA competition: inhibition of human IL-21R fusion protein binding to captured IL-21-FLAG. The method, then:
ScFv production was induced by addition of 1 mM IPTG to exponentially growing cultures and incubation overnight at 30° C. Crude scFv-containing periplasmic extracts (Griffiths et al.(1993) EMBO J., 12:725-734) were screened for the ability to inhibit the binding of human IL-21R fusion protein to human IL-21-FLAG tagged protein. Briefly, anti-FLAG antibody was immobilized onto plastic and used to capture FLAG-tagged human IL-21 protein. Binding of human IL-21R fusion protein was detected with a Europium-labelled antibody to the IL-21R fusion protein, and time resolved fluorescence was detected with the DELFIA reagent kit (PerkinElmer, Boston, Mass.).

Test [3] concerns the target T1, human IL-21R expressed on cells. Description: cell-based or functional assay. This is another data set of the same source.
Test [4] deals with T2, human IL-21R fusion protein. Description: epitope competition assay: bio.hIL21R binding to immobilized MUF IgG (competitor), DELFIA. The method, then:
The scFv clones 18A5, 19F5 and 18G4 were further tested in an epitope competition assay in order to determine whether they bound the same or a different epitope than MUF. ScFv-containing periplasmic extracts were prepared as described above for the various clones. Final buffer used was 50 mM MOPS, pH 7.4, 0.5 mM EDTA, 0.5 M sorbitol. The scFv-containing crude periplasmic extracts were screened for the ability to inhibit the binding of biotinlyated human IL-21R fusion protein (bio.hIL21R) to MuF IgG protein immobilized on plastic in a 96 well microtitre plate assay. Binding of bio.hIL21R was detected with Europium-labelled streptavidin and TRF detected using the DELFIA reagent kit (PerkinElmer). Positive clones were used in an epiope competition assay described herein.

The target is the same in test [5]. Description: phage ELISA on coated IL-21R fusion protein. The method, then:
To establish the specificity of the scFᵥ's for IL-21R, a phage ELISA was performed against the IL-21R fusion protein. Individual TG1 cell colonies from the second selection were transferred to microtiter wells containing 100 μl of -2TYAG medium. M13K07 helper phage ([…]) was added to the exponentially growing TG1 culture, and the samples were incubated for one hour at 37° C. Plates were centrifuged and supernatant was removed, then the remaining pellets were suspended in 100 μl of 2TYAG and incubated overnight at 30° C. with shaking. The next day, plates were centrifuged and phage supernatant was transferred to new microtiter plate wells. Phage was blocked in MPBS prior to ELISA.
Wells of microtiter plates were coated with IL-21R fusion protein or control fusion protein (0.5-2.5 μg/ml) and incubated overnight at 4° C. The next day, fusion protein solution was removed and wells were blocked for 1 hour in MPBS. Wells were washed with PBS, then 50 μl of blocked phage was added. Plates were incubated for 1 hour, then washed 3 times with PBST and 3 times with PBS. Anti-M13-HRP conjugate (Pharmacia, Peapack, N.J.) was added to wells, and the samples were incubated for one hour. Wells were washed 3 times with PBST and 3 times with PBS. […] The color signal was measured by reading absorbance at 450 nm using a microtiter plate reader.
Background: An ELISA detects its analyte on a solid surface through an enzyme-linked reagent.

T1 sequence (Q9HBE5 20-538): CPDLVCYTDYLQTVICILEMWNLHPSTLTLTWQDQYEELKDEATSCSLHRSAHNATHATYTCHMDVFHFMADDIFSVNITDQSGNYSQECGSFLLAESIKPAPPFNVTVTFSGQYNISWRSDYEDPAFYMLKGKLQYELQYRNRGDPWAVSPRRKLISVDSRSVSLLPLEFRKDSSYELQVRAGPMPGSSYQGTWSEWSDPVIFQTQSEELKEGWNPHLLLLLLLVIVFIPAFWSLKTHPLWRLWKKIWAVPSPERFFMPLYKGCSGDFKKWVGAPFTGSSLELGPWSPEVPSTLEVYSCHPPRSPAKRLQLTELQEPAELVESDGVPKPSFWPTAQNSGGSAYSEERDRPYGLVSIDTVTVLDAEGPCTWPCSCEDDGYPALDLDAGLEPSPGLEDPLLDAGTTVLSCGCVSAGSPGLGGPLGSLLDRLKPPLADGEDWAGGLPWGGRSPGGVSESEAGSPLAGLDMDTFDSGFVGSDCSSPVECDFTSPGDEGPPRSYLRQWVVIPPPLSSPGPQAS
T2 sequence (Q9HBE5 20-235): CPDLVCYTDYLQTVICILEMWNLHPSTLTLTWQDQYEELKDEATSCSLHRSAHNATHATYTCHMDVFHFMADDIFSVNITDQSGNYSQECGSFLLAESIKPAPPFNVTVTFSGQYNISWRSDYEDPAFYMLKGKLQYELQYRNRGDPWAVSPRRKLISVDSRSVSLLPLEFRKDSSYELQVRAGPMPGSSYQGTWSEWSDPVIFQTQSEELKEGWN

B1: R18 scFv (scFv)
scFv: QVQLQESGGGLVQPGGSLRLSCAASGFTFSSYAMSWVRQAPGKGLEWVSGISGSGTSTYYADSVKGRFTISRDNSKNTLYLQMNSLRAEDTAVYYCATHISERPRGAFDIWGRGTMVTVSSGGGGSGGGGSGGGGSALSSELTQDPAVSVALGQTVRITCQGDSLRKYHATWYQQKPRQAPVLVVYGKNRRPSGIPDRFSGSSSGNTASLTITGAQAGDEADYYCNSRDTSGLHYVFGAGTKLTVLG
notes: also called hIL21R18; scFv R18 clone
Consider B1, for which the “IC50 Value (nM) ScFv, hBaf3Mu-1 cell proliferation assay” value (“IC50 Value (nM) ScFv” below) in test [1] stood at 473 nM. Also, the IC50 in test [2] was 770 nM.

B2: MUF scFv (scFv)
scFv: QVQLVQSGAEVKKPGSSVRVSCKASGGTFNIYSVSWVRQAPGQGLEWMGRIIPMRDIANYAQRFQGRVTLTADKSSGTAYMELRGLRSDDTAVYWCATLAGPLDSWGQGTLVTVSSGGGGSGGGGSGGGGSALSSELTQDPAVSVGLGQTVTITCQGGSLRQYYASWYQQKPGQAPVVVIYGKNKRPSGIPDRFSGTTSGNTASLTITGAQAEDEADYYCKSRDSSGNHPLYVFGAGTKLTVLGAAAHHHHHH
As to B2, the “IC50, inhibition of cell response to IL-21 (hBaf3Mu-1 proliferation)” value in test [3] stood at 268 nM. Also, the “IC50 Value (nM) ScFv” value in test [1] was found to be 140 nM.

B3: 18G4 scFv (scFv)
scFv: EVQLVQSGAEVKKPGSSVKVSCKASGGTFNIYSVSWVRQAPGQGLEWMGRIIPMRDIANYAQRFQGRVTLTADKSSGTAYMELRSLRSDDTAVYWCATLAGPLDSWGRGTLVTVSSGGGGSGGGGSGGGGSALSSELTQDPAVSVALGQTVRITCQGDSLRTYYASWYQKRPGQAPILVMYGRNKRPSGIPDRFSGSFSGNRASLTITGAQAEDEADYYCKSRAYSGNLVEFGGGTKLTVLG
Turning to B3, the “IC50 Value (nM) ScFv” value in test [1] was 522 nM. This molecule returned a half-inhibitory concentration (IC50) in test [4] of 1.4 nM.

B4: 19F5 scFv (scFv)
scFv: EVQLVQSGAEVKKPGASVKVSCKASGYAFTDNYIHWVRQAPGQGLEWMGWINPKTGGTNYAQKFQGRVSMTRDTSINTAYMDLSRLTSDDTAVYYCTRSLSPYGGQLLYWGRGTMVTVSSGGGGSGGGGSGGGGSALSSELTQDPAVSVALGQTVRITCQGDSLRRYYASWFQQKPGQAPVLVIFGKNNRPSGIPDRFSASSSGNTASLTITGAQAEDEADYYCNSRDTSINHPVIFGGGTKLTVLG
B4: the “IC50 Value (nM) ScFv” value in test [1] amounted to 91 nM.

B5: 18A5 scFv (scFv)
scFv: QVQLQESGPGLVKTSETLSLTCAVSGYSISSGYYWGWIRQPPGKGLEWIGSISHTGNTYYNPPLKSRVTISVDTSKNQFSLKLSSVTAADTAVYYCARGGGISRPEYWGKGTLVTVSSGGGGSGGGGSGGGGSALSSELTQDPPVSVALGQTVTLTCQGDSLRTYYASWYQQKSGQAPILLLYGKHKRPSGIPDRFSGSTSGDTASLTITGAQAEDEADYYCNSRDSSGNPHVLFGGGTQLTVLS
Turning to B5, in test [1], the “IC50 Value (nM) ScFv” value was determined as 213 nM. For the same molecule, the IC50 in test [4] was 114 nM.

B6: MU11 phage clone (scFv)
scFv: EVQLVQSGGGVVQPGRSLRLSCAASGFTFSSYGMHWVRQAPGKGLEWVAVISYDGSNKYYADSVKGRFTISRDNSKNTLYLQMNSLRDEDTAVYYCARHGQYALDIWGQGTMVTVSSGGGGSGGGGSGGGGSDIVMTQSPSTLSASVGDRVTITCRASQGISSWLAWYQQKPGRAPKVLIYKASTLESGVPSRFSGSGSGTDFTLTISSLQPEDFATYYCQQSYSTPWTFGQGTKLEIKRAA
Regarding B6, the binding result in test [5] was “binds”.

B7: MUF antibody (human IgG1 lambda) (antibody, V domains shown)
VH: QVQLVQSGAEVKKPGSSVRVSCKASGGTFNIYSVSWVRQAPGQGLEWMGRIIPMRDIANYAQRFQGRVTLTADKSSGTAYMELRGLRSDDTAVYWCATLAGPLDSWGQGTLVTVSS
VL: SSELTQDPAVSVGLGQTVTITCQGGSLRQYYASWYQQKPGQAPVVVIYGKNKRPSGIPDRFSGTTSGNTASLTITGAQAEDEADYYCKSRDSSGNHPLYVFGAGTKLTVLG
notes: also called MUF IgG; MuF IgG protein
For the molecule B7, the “IC50, inhibition of cell response to IL-21 (hBaf3Mu-1 proliferation)” value in test [3] came to 3 nM. In test [4], this molecule gave a 50% inhibitory concentration (IC50) of 0.4 nM.

By IC50 is commonly meant the concentration needed to halve the response being measured. A higher IC50 goes with a need for much substance.

The values are drawn from US20040265960A1 (Pfizer, published 2004).
